Source: the DeepSol protein solubility set

Assay: soluble on expression in E. coli; label from the status in PepcDB or PDB records

| Sequence | soluble on expression in E. coli |
| --- | --- |
| NEAPIDMHGGKSAKIERQSVENSAQKENSKSAILERLKRLREYSKDHLKAFQRLQVQDFDGRIKPLDTISIEYIHKILKKDDFQGLNAMQVLLGIMFFPNDWRSIKMIYTSTKALRKLIGTPLDESRIAFRDAFDSRGYKLKNLVEEVNQKSPNARNELDKDVLKVDERINLVYTLFSAQFLRIFPSDKTTAWLSPIEAISSPNKEISSVATEFLKNIFSGFDDALKTNQWDKVEKTLKDLSIYQKEHAKNLYLSSSKVDSEIFLNHTNFFNRLT | not soluble |
| NEHSKWMILDRVRFTLDGLECDKIGVGYEAYRNQPNFCSAPYGSCLGNQLWNFWEYDKRRIDNSQLPLYIVEGRFQRINQHPNAGAHTFSVGVTEDLNTNLLIELMADDIEYVYQRSPAKIIDIRVPTFEALSQVGIANVTTKNIGKLESSYSLTFKCSSGISPVEEQLYTMKPDEVIARSFELRSTTDQAAMHQCEAILKASDFSELDREGYRFSTAATVYNNGAQIGPTNDHKKGGFWDSIKALWRNLIDFLTGRLCWTKCPRLFDFGCHI | not soluble |
| NGEVEVPKTELEEIQQQCNQVTDDSLESTRRMLNMCEESKEAGIRTLVMLDEQGEQLDRIEEGLDQINQDMKDAEKNLEGMEK | soluble |
| NHELDWSDIKGQHHAKNAMVIAACGGHSILLSGAPGSGKTMMAKRFSTLLPELSETQALECAAINSIRGKLPDFREWRLPPFRAPHHTASPVALVGGGNPPKPGEISLAHHGVLFLDELPEFNRQVLETLREPLESGHICISRAAAQIEFPAKFQLIAAMNPCPCGQWGNSQANCLCTPDRI | not soluble |
| NIDSNKKILQEIKRYADEHEERYGRFPKTLIFAVQDLANSSSHADQIVDQARDIFGRGDSFVQKITGKVDRPLQRIREFRNRKEPGIAVTVDLLSTGVDVPDIEYIVFLRSMKSRILFEQMIGRGTRKGEH | not soluble |
| NILKIRCAPVTWPIGMGKNFKGVYHILNDEIYLFEAGGERLPHEFDIIKGIDNPELEQRFPLEIQQLRDEIELVQAASNEFNLDEFLAGELTPVFFGSAINNFGIQEILNSLIDWAPAPKPRDATVRMVEPDEPKFSGFIFKIQANMDPKHRDRIAFLRVCSGKFERGMKMKHLRINREIAASSVVTFMSHDRELVEEAYAGDIIGIPNHGNIQIGDSFSEGEQLAFTGIPFFAPELFRSVRIKNPLKIKQLQKGLQQLGEEGAVQVFKPMSGADLILGAVGVLQFEVVTSRLANEYGVEAVFDSASIWSARWVSCDDKKKLAEFEKANAGNLAIDAGGNLAYLAPNRVNLGLTQERWPDIVFHETREHSVKL | not soluble |
| NIYDVAHDLDKGIRETPEFISLQDAYREVNENADAKAKFERFRDVQVTIQEKQMTGQEIDDETVNVAQQVAQEVQENELIVKLMEKEQAMSTIINDLNRIIMTPLQDLYNVA | not soluble |
| NLLDDAVKRISEDPPCKCPTKFCVERLSQGRYRVGEKILFIRMLHNKHVMVRVGGGWETFAGYLLKHDPCRMLQISRVDGKTSP | soluble |
| NSPITIGLALNKKLNNHWSIETGLQYIYLKSEFTTGKEYRIQKTQKLHYIGIPLRISYRFGNYKQFSFYSTAGLQMEIPIKGTLHTSHVTDSVPINLGYQSLDVPLQWSINASTGVQYHFTPHTSIYIEPTINYYIPDGSSLRTIRKEHPVTFSVPVGIRFSW | not soluble |
| NTITVSELLELIKKEDVIIVDTRSPREFKEETLPGAINIPLFLDDEHALIGKTYKQESREKAIEIATDIVEKSLKRILNEAKKLDRDKLIVVFCARGGMRSQTMALILQLLGFKVKRLIGGFKAFKHAVDK | not soluble |
| NTRLLEEIEERRRSERFFHATIDSLTAPVAILNGEGDIVTVNRAWRKFADENGGLHPNHFIGYNYLGLCDNVKGDDAVTASAVARGIRELIAGRINEFHVDYPCHSPDEQRWFQVRVTRLENGSRGRVAVVHENIS | not soluble |
| NTTGGRFVDKDNRKYYVKDDHKAIYWHKIDGKTYYFGDIGEMVVGWQYLEIPGTGYRDNLFDNQPVNEIGLQEKWYYFGQDGALLEQTDKQVLEAKTSENTGKVYGEQYPLSAEKRTYYFDNNYAVKTGWIYEDGNWYYLNKLGNFGDDSYNPLPIGEVAKGWTQDFHVTIDIDRSKPAPWYYLDASGKMLTDWQKVNGKWYYFGSSGSMATGWKYVRGKWYYLDNKNGDMKTGWQYLGNKWYYLRSSGAMVTGWYQDGLTWYYLNAGNGDMKTGWFQVNGKWYYAYSSGALAVNTTVDGYSVNYNGEWVQ | soluble |
| PAWWGERAHPISEGGRGSAWFVEASFGNAVLRQYRRGGMIAMLNRDRYFWCGGHRTRSVLEFRLMRELISRGLPVPTPLAACYVRHGVQYRAAILMERLEGVSSLAMCVRGNSKEIHWEQIGRMISRFHREGLDHADLNAHNILLDQAGQCWLIDFDRGALRIPATKWREHNLARLLRSLLKIRGERSVDAVYRDFERLCRAY | not soluble |
| PCCELITNISIPDDKAQNTLSEIEDAISNILGKPVAYIMSNYDYQKNLRFSGSNEGYCFVRLTSIGGINRSNNSLLADKITKILSNHLSVKPRRVYIEFRDCSAQNFAFSGSLFGGSRSHHHHHH | soluble |
| PELPEVETSRRGIEPHLVGATILHAVVRNGRLRWPVSEEIYRLSDQPVLSVQRRAKYLLLELPEGWIIIHLGMSGSLRILPEELPPEKHDHVDLVMSNGKVLRYTDPRRFGAWLWTKELEGHNVLTHLGPEPLSDDFNGEYLHQKCAKKKTAIKPWLMDNKLVVGVGNIYASESLFAAGIHPDRLASSLSLAECELLARVIKAVLLRSIEQGGTTLKDFLQSDGKPGYFAQELQVYGRKGEPCRVCGTPIVATKHAQRATFYCRQCQK | soluble |
| PFSFFHWIFIHPESHTESEISEIITHEETHARQYHSADVLVSEIMCTFCWFNPFVWLMKREVRGNLEYMADHRVLETGHDSKSYQYHLL | not soluble |

| Sequence | soluble on expression in E. coli |
| --- | --- |
| PGDESEEQSIKAGMMVCHVFVPGFDDLSEQQQIHMAQAIDHPVRKTAHATEYAMLAGLVLGAVTVSIIRWKNVLVSVCIAVLYASTDELHQLFVPGRSGQVKD | not soluble |
| PGSSGLPPEKPKNLSCIVNEGKKMRCEWDGGRETHLETNFTLKSEWATHKFADCKAKRDTPTSCTVDYSTVYFVNIEVWVEAENALGKVTSDHINFDPVYKVKPNPPHNLSVINSEELSSILKLTWTNPSIKSVIILKYNIQYRTKDASTWSQIPPEDTASTRSSFTVQDLKPFTEYVFRIRCMKEDGKGYWSDWSEEASGITYEDRPSKEPSFW | soluble |
| PIDLITVGSLIELQDSQNPFQYWIVSVIENVGGRLRLRYVGLEDTESYDQWLFYLDYRLRPVGWCQENKYRMDPPSEIYPLKMASEWKCTLEKSLIDAAKFPLPMEVFKDHADL | soluble |
| PKQVGNAQHLYDNYDLVPAMIAEVNPRDMVVMALVNTNVDPTLPPRWALATRNITAIPGIEGDTRKVGTRIPAVAVTGQRSVGNQDSWDQISPMPIAWATPDSSVIARAESTIPSEQWTTLSKNLNKLDQVRETKFDLLEL | soluble |
| PKYTLHYFPLMGRAELCRFVLAAHGEEFTDRVVEMADWPNLKATMYSNAMPVLDIDGTKMSQSMCIARHLAREFGLDGKTSLEKYRVDEITETLQDIFNDVVKIKFAPEAAKEAVQQNYEKSCKRLAPFLEGLLVSNGGGDGFFVGNSMTLADLHCYVALEVPLKHTPELLKDCPKIVALRKRVAECPKIAAYLKKRPVRDF | soluble |
| PMSEKQLAEVVERTVTPLMKAQAIPGMAVAVIYEGQPHYFTFGKADVAANKPVTPQTLFELGSISKTFTGVLGGDAIARGEISLGDPVTKYWPELTGKQWQGIRMLDLATYTAGGLPLQVPDEVKDNASLLRFYQNWQPQWKPGTTRLYANASIGLFGALAVKPSGMSYEQAITTRVFKPLKLDHTWINVPKAEEAHYAWGYRDGKAVHVSPGMLDAEAYGVKTNVQDMASWVMVNMKPDSLQDNSLRKGLTLAQSRYWRVGAMYQGLGWEMLNWPVDAKTVVEGSDNKVALAPLPAREVNPPAPPVNASWVHKTGSTGGFGSYVAFIPEKQLGIVMLANKSYPNPARVEAAYRILSAL | soluble |
| PPGPCLPPRLQGRPKAKEIQLRWGPPLVDGGSPISCYSVEMSPIEKDEPREVYQGSEVECTVSSLLPGKTYSFRLRAANKMGFGPFSEKCDITTAPG | soluble |
| PPHVEYMRRLELADYEPASDSGHIRYYPKGRLVKTLLEQFITRKCIDYGAMEVETPIMYDRNHPTLRRYLERFPARQYIIKGDKREFFLRFAACFGQFLMLSSSTITYRNLPLKIYELTRYSFRKEQRGELVGLRRLRAFTMPDMHTVAKDMEQAKEEFFNQYRLSVEVLREIGLEPEDYEVAVRITKDFYEENREFVHSLVDILKKPILIEMWDHRFFYFVLKFEFNFVDALDKASALSTVQIDVENAERYGITFVDSDGKEKHPYILHCSVSGAVERVMYALLEKAK | not soluble |
| PPKIRVVVRKRPISKKERERGDDDVVDVLAKNNTVVVNEEKVKVDLTKYLEKHAFKFDESLDENVSNEAVYQLTVGPLVRTLFRNGRASCFAYGQTGSGKTYTMSPLPIRASADIFTFMAQQQYRDISLCVSCFEIYGNKVFDLLNARKKLNILEDGKKKVVVVGLKEFGVDDVDGVKALIEESAKNRSTGSTAANADSSRSHSIMQFALKRAAPAPAGGFRRGEDAPEPRVVGKISFIDLAGSERGADTFDNNRQTRLEGAEINKSLLALKECIRALDSDARHVPFRGSKLTAVLRDSFVGDQARTVMIANISPCSSSVEHTLNTLRYADRVKELRKDKADRT | soluble |
| PRHRLLVVGAGQLSRYLCEMAIALDFDVTVSDPRQEYRAGWQVEGVALTTAMPDDMVIAARPDARTAVIALTHDPKLDDLALIDALQTPAFYVGALGSRANHARRVARLREHFGLTPAQLARLRGPAGIY | not soluble |
| PVDINAATHTIVRGDTVYNISKRYHISQDDFRAWNGMTDNTLSIGQIVKVKPAGYAAPKAAAVKSRPAVPAAAQPPVQSAPVDINAATHTIVRGDTVYNISKRYHISQDDFRAWNGMTDNMLSIGQIVKVKPAGYAAPKTAAVESRPAVPAAVQTPVKPAAQPPVQSAPQPAAPAAENKAVPAPAPQSPAASPSGTRSVGGIVWQRPTQGKVVADF | not soluble |
| PVFENNNQRYYESLPFKQLKELKIACSQYGPTAPFTIAMIENLGTQALPPNDWKQTARACLSGGDYLLWKSEFFEQCARIADVNRQQGIQTSYEMLIGEGPYQATDTQLNFLPGAYAQISNAARQAWKRLPSLEHHHHHH | soluble |
| QAKPGGKEDSVLYQLMRARVALIYEETPGIAAKRFRAQLVENPKSEPARYGLAIAQIKGGQLNEARESLKPLLEKSPNDITYNLTQIDLDITNNRLADAQQRVDRMLTLYPTSYPLNDVRIDVLLKQNRTAEAEKSLEALLKTRPDDPDIWYVVAETRG | not soluble |
| QCGACGESYAADEFWICCDLCEMWFHGKCVKITPARAEHIKQYKCPSCSNK | soluble |
| QDVGQKSIFSITPEFDEVRSISNVGSNGDISSHGNTIYFTRHTLNSPQDIFSIDNHGDDLTQLTHINKDKLGDVKFADYQQFNFKGWNDETVHGYWLKPANFEAGKKYPIAFLVHGGPQGSFGNMFHYRWNAQLWAAQGYGVVMVDFHGSTGYGQEFTHSISRDWGGKPLEDLQKGLDFIVKEQPWLDGDNACALGASYGGYMMNWIAGNWPTRFKCLINHAGLYDMPSFYQSTEELWFPEYDMGGPSWGKENGSAKGKVSPDYTKFNPSAYVNNWQTPMLVIQGELDYRVPYAQSLGAFTTLQRKGIDSRLVMFPDEDHHIRKPDNLVVWYDEVFKWLEKYTK | not soluble |
